Results published in PMC10397247.

Legend:
[1] = molecular target: T1, 4H3112-bN; experiment: two-hybrid library CCNG1;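 note: natural log of median RNA to DNA barcode read ratio; higher means stronger binding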
T1 chain: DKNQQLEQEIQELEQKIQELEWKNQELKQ

[2] = molecular target: T2, 4H3129-bH; experiment: two-hybrid library CCNG1;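 note: natural log of median RNA to DNA barcode read ratio; higher means stronger binding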
T2 chain: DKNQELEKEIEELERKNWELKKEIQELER

[3] = molecular target: T3, 4H3172-bN; experiment: two-hybrid library CCNG1;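 note: natural log of median RNA to DNA barcode read ratio; higher means stronger binding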
T3 chain: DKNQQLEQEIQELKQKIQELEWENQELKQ

[4] = molecular target: T4, 4H3185-bN; experiment: two-hybrid library CCNG1;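 note: natural log of median RNA to DNA barcode read ratio; higher means stronger binding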
T4 chain: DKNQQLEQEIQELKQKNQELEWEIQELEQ

[5] = molecular target: T5, 4H331-bN; experiment: two-hybrid library CCNG1;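 note: natural log of median RNA to DNA barcode read ratio; higher means stronger binding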
T5 chain: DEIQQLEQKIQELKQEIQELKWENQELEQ

[6] = molecular target: T6, 4H3354-bN; experiment: two-hybrid library CCNG1;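 note: natural log of median RNA to DNA barcode read ratio; higher means stronger binding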
T6 chain: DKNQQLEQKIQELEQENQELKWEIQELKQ

[7] = molecular target: T7, 4H338-bN; experiment: two-hybrid library CCNG1
T7 chain: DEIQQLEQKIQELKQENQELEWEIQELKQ

[8] = molecular target: T8, 4H3427-bN; experiment: two-hybrid library CCNG1
T8 chain: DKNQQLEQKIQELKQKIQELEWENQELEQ

[9] = molecular target: T9, 4H346-bN; experiment: two-hybrid library CCNG1
T9 chain: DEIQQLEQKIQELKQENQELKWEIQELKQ

[10] = molecular target: T10, 4H3782-bN; experiment: two-hybrid library CCNG1
T10 chain: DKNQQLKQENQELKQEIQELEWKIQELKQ

[11] = molecular target: T11, 4H3817-bH; experiment: two-hybrid library CCNG1
T11 chain: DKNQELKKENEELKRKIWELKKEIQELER

[12] = molecular target: T12, 4H3855-bN; experiment: two-hybrid library CCNG1
T12 chain: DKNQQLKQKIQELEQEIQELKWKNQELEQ

[13] = molecular target: T13, 4H3926-bN; experiment: two-hybrid library CCNG1
T13 chain: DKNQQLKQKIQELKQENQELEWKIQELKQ

[14] = molecular target: T14, 4H4001-bN; experiment: two-hybrid library CCNG1
T14 chain: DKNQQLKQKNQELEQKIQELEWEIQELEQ

[15] = molecular target: T15, 4H4073-bN; experiment: two-hybrid library CCNG1
T15 chain: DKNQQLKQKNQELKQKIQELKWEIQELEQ

[16] = molecular target: T16, 4H454-bN; experiment: two-hybrid library CCNG1
T16 chain: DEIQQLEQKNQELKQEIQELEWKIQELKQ

[17] = molecular target: T17, 4H457-bN; experiment: two-hybrid library CCNG1
T17 chain: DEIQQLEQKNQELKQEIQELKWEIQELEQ

[18] = molecular target: T18, 4H568-bN; experiment: two-hybrid library CCNG1
T18 chain: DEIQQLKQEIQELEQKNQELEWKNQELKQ

[19] = molecular target: T19, 4H575-bN; experiment: two-hybrid library CCNG1
T19 chain: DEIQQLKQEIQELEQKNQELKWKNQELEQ

[20] = molecular target: T20, 4H607-bN; experiment: two-hybrid library CCNG1
T20 chain: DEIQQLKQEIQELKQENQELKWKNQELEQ

[21] = molecular target: T21, 4H683-bN; experiment: two-hybrid library CCNG1
T21 chain: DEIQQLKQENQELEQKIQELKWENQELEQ

[22] = molecular target: T22, 4H687-bN; experiment: two-hybrid library CCNG1
T22 chain: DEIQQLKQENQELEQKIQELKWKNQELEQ

[23] = molecular target: T23, 4H717-bN; experiment: two-hybrid library CCNG1
T23 chain: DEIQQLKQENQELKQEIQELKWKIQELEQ

[24] = molecular target: T24, 4H72-bN; experiment: two-hybrid library CCNG1
T24 chain: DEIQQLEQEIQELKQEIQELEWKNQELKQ

[25] = molecular target: T25, 4H754-bN; experiment: two-hybrid library CCNG1
T25 chain: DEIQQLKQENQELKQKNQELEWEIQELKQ

[26] = molecular target: T26, 4H780-bN; experiment: two-hybrid library CCNG1
T26 chain: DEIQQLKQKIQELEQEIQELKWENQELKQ

[27] = molecular target: T27, 4H797-bN; experiment: two-hybrid library CCNG1
T27 chain: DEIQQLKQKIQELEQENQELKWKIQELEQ

[28] = molecular target: T28, 4H855-bN; experiment: two-hybrid library CCNG1
T28 chain: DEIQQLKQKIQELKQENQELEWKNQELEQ

[29] = molecular target: T29, 4H883-bN; experiment: two-hybrid library CCNG1
T29 chain: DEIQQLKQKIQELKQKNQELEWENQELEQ

[30] = molecular target: T30, 4H908-bN; experiment: two-hybrid library CCNG1
T30 chain: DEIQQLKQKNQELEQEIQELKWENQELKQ

[31] = molecular target: T31, 4H918-bN; experiment: two-hybrid library CCNG1
T31 chain: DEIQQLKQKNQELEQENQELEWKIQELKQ

[32] = molecular target: T32, 4H953-bN; experiment: two-hybrid library CCNG1
T32 chain: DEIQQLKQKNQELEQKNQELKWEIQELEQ

[33] = molecular target: T33, 4H967-bN; experiment: two-hybrid library CCNG1
T33 chain: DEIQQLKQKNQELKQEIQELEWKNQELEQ

[34] = molecular target: T34, 4H968-bN; experiment: two-hybrid library CCNG1
T34 chain: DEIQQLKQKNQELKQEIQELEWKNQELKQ

[35] = molecular target: T35, 4H2536-AA; experiment: two-hybrid library CCmax
T35 chain: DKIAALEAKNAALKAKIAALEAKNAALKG

[36] = molecular target: T36, 4H2608-AA; experiment: two-hybrid library CCmax; conditions: mean of both orientations
T36 chain: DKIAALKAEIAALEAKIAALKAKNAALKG

[37] = molecular target: T37, 4H2614-AA; experiment: two-hybrid library CCmax; conditions: mean of both orientations
T37 chain: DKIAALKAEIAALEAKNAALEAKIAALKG

[38] = molecular target: T38, 4H2726-AA; experiment: two-hybrid library CCmax; conditions: mean of both orientations
T38 chain: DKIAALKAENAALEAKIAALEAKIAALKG

[39] = molecular target: T39, 4H2935-AA; experiment: two-hybrid library CCmax; conditions: mean of both orientations
T39 chain: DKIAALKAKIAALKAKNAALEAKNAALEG

[40] = molecular target: T40, 4H327-AA; experiment: two-hybrid library CCmax; conditions: mean of both orientations
T40 chain: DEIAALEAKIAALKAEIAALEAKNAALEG

[41] = molecular target: T41, 4H3605-AA; experiment: two-hybrid library CCmax; conditions: mean of both orientations
T41 chain: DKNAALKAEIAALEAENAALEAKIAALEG

[42] = molecular target: T42, 4H3625-AA; experiment: two-hybrid library CCmax; conditions: mean of both orientations
T42 chain: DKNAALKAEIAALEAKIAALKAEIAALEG

[43] = molecular target: T43, 4H3664-AA; experiment: two-hybrid library CCmax; conditions: mean of both orientations
T43 chain: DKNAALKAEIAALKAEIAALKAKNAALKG

[44] = molecular target: T44, 4H369-AA; experiment: two-hybrid library CCmax
T44 chain: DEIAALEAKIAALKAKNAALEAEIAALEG

[45] = molecular target: T45, 4H3922-AA; experiment: two-hybrid library CCmax; conditions: mean of both orientations
T45 chain: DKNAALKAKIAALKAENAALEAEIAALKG

[46] = molecular target: T46, 4H4033-AA; experiment: two-hybrid library CCmax; conditions: mean of both orientations
T46 chain: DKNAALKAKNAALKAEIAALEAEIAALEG

[47] = molecular target: T47, 4H481-AA; experiment: two-hybrid library CCmax; conditions: mean of both orientations
T47 chain: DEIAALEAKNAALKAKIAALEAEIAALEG

[48] = molecular target: T48, 4H55-AA; experiment: two-hybrid library CCmax; conditions: mean of both orientations
T48 chain: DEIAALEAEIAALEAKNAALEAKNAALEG

[49] = molecular target: T49, 4H662-AA; experiment: two-hybrid library CCmax; conditions: mean of both orientations
T49 chain: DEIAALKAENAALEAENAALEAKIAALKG

[50] = molecular target: T50, O3-AA; experiment: two-hybrid library CCmax
T50 chain: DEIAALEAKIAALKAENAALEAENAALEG

Binder: DKNQQLEQEIQELEQKIQELEWKNQELKQ [4H3112-bN]
- interaction score [1]: -0.426
- interaction score [2]: -0.762
- interaction score [3]: 0.00481
- interaction score [4]: -1.11
- interaction score [5]: -0.918
- interaction score [6]: 0.377
- interaction score [7]: -0.816
- interaction score [8]: 0.996
- interaction score [9]: 0.282
- interaction score [10]: -0.541
- interaction score [11]: -0.521
- interaction score [12]: -0.962
- interaction score [13]: 0.154
- interaction score [14]: -0.255
- interaction score [15]: -0.28
- interaction score [16]: 0.745
- interaction score [17]: -0.526
- interaction score [18]: 0.078
- interaction score [19]: -1.34
- interaction score [20]: 0.634
- interaction score [21]: 0.347
- interaction score [22]: -1.66
- interaction score [23]: -1.88
- interaction score [24]: -0.5
- interaction score [25]: -1.34
- interaction score [26]: -0.0911
- interaction score [27]: -0.676
- interaction score [28]: 0.606
- interaction score [29]: 1.54
- interaction score [30]: 0.308
- interaction score [31]: 0.0994
- interaction score [32]: 0.0741
- interaction score [33]: -1.11
- interaction score [34]: -0.158

Binder: DKIAALEAKNAALKAKIAALEAKNAALKG [4H2536-AA]
- interaction score [35]: -0.663
- interaction score [36]: -0.457
- interaction score [37]: -1.61
- interaction score [38]: 1.39
- interaction score [39]: -1.66
- interaction score [40]: -1.02
- interaction score [41]: 1.29
- interaction score [42]: -1.16
- interaction score [43]: -1.51
- interaction score [44]: 0.0403
- interaction score [45]: 0.635
- interaction score [46]: -1.47
- interaction score [47]: -0.0556
- interaction score [48]: -1.17
- interaction score [49]: -1.33
- interaction score [50]: -1.65
